Measured values as given in patent US20160201097A1, “Materials and Methods of Producing 7-Carbon Monomers” (INVISTA North America S.á.r.l., priority 2014, published 2016).

How the values were obtained:
Type in all cases: biochemical
[1] = ω-transaminase activity, reverse direction: 7-aminoheptanoate to pimelate semialdehyde (L-alanine formation by RP-HPLC); details: cell free extract, 10 mM 7-aminoheptanoate, 10 mM pyruvate, pH 7.5, 25° C., 4 h; against the empty vector control (FIG. 13)
Protocol: (§1) A nucleotide sequence encoding an N-terminal His-tag was added to the nucleic acid sequences from Chromobacterium violaceum, Pseudomonas syringae, Rhodobacter sphaeroides, and Vibrio fluvialis encoding the ω-transaminases of SEQ ID NOs: 7, 9, 10 and 12, respectively (see FIG. 6) such that N-terminal HIS tagged ω-transaminases could be produced. Each of the resulting modified genes was cloned into a pET21a expression vector under control of the T7 promoter and each expression vector was transformed into a BL21[DE3] E. coli host. The resulting recombinant E. coli strains were cultivated at 37° C. in a 250 mL shake flask culture containing 50 mL LB media and antibiotic selection pressure, with shaking at 230 rpm. Each culture was induced overnight at 16° C. using 1 mM IPTG.
(§2) The pellet from each induced shake flask culture was harvested via centrifugation. Each pellet was resuspended and lysed via sonication. The cell debris was separated from the supernatant via centrifugation and the cell free extract was used immediately in enzyme activity assays.
Enzyme activity assays in the reverse direction (i.e., 7-aminoheptanoate to pimelate semialdehyde) were performed in a buffer composed of a final concentration of 50 mM HEPES buffer (pH=7.5), 10 mM 7-aminoheptanoate, 10 mM pyruvate and 100 μM pyridoxyl 5′ phosphate. Each enzyme activity assay reaction was initiated by adding cell free extract of the ω-transaminase gene product or the empty vector control to the assay buffer containing the 7-aminoheptanoate and incubated at 25° C. for 4 h, with shaking at 250 rpm. The formation of L-alanine from pyruvate was quantified via RP-HPLC.

[2] = ω-transaminase activity, forward direction: pimelate semialdehyde to 7-aminoheptanoate (pyruvate formation by RP-HPLC); details: for acceptance of pimelate semialdehyde as substrate (conversion of L-alanine to pyruvate): cell free extract, 10 mM pimelate semialdehyde, 10 mM L-alanine, pH 7.5, 25° C., 4 h, against the empty vector control (FIG. 14); for reversibility of ω-transaminase activity: pimelate semialdehyde accepted, 7-aminoheptanoate synthesized: conclusion from reverse and forward assays of Example 1
Protocol: as §1, §2
Enzyme activity in the forward direction (i.e., pimelate semialdehyde to 7-aminoheptanoate) was confirmed for the transaminases of SEQ ID NO 9, SEQ ID NO 10 and SEQ ID NO 12. Enzyme activity assays were performed in a buffer composed of a final concentration of 50 mM HEPES buffer (pH=7.5), 10 mM pimelate semialdehyde, 10 mM L-alanine and 100 μM pyridoxyl 5′ phosphate. Each enzyme activity assay reaction was initiated by adding a cell free extract of the ω-transaminase gene product or the empty vector control to the assay buffer containing the pimelate semialdehyde and incubated at 25° C. for 4 h, with shaking at 250 rpm. The formation of pyruvate was quantified via RP-HPLC.

[3] = ω-transaminase activity: 7-aminoheptanol to 7-oxoheptanol (L-alanine formation by RP-HPLC); details: for acceptance of 7-aminoheptanol as substrate (conversion of pyruvate to L-alanine): cell free extract, 10 mM 7-aminoheptanol, 10 mM pyruvate, pH 7.5, 25° C., 4 h, against the empty vector control (FIG. 17); for acceptance of 7-oxoheptanol as substrate forming 7-aminoheptanol: concluded from the reversibility of the ω-transaminase activity (Example 1)
Protocol: A nucleotide sequence encoding an N-terminal His-tag was added to the Chromobacterium violaceum, Pseudomonas syringae and Rhodobacter sphaeroides nucleic acids encoding the ω-transaminases of SEQ ID NOs: 7, 9 and 10, respectively (see FIG. 6) such that N-terminal HIS tagged ω-transaminases could be produced. The modified genes were cloned into a pET21a expression vector under the T7 promoter. Each expression vector was transformed into a BL21[DE3] E. coli host. Each resulting recombinant E. coli strain were cultivated at 37° C. in a 250 mL shake flask culture containing 50 mL LB media and antibiotic selection pressure, with shaking at 230 rpm. Each culture was induced overnight at 16° C. using 1 mM IPTG.
as §2
Enzyme activity assays in the reverse direction (i.e., 7-aminoheptanol to 7-oxoheptanol) were performed in a buffer composed of a final concentration of 50 mM HEPES buffer (pH=7.5), 10 mM 7-aminoheptanol, 10 mM pyruvate, and […] pyridoxyl 5′ phosphate. Each enzyme activity assay reaction was initiated by adding cell free extract of the ω-transaminase gene product or the empty vector control to the assay buffer containing the 7-aminoheptanol and then incubated at 25° C. for 4 h, with shaking at 250 rpm. The formation of L-alanine was quantified via RP-HPLC.

[4] = carboxylate reductase activity: N7-acetyl-7-aminoheptanoate to N7-acetyl-7-aminoheptanal (NADPH consumption, A340); details: purified enzyme enhanced by sfp gene product, 2 mM N7-acetyl-7-aminoheptanoate, pH 7.5, room temperature, 20 min; against the empty vector control (FIG. 10)
Protocol: The activity of each of the N-terminal His-tagged carboxylate reductases of SEQ ID NOs: 3, 5, and 6 (see Examples 2 and 3, and FIG. 6) for converting N7-acetyl-7-aminoheptanoate to N7-acetyl-7-aminoheptanal was assayed in triplicate in a buffer composed of a final concentration of 50 mM HEPES buffer (pH=7.5), 2 mM N7-acetyl-7-aminoheptanoate, 10 mM MgCl2, 1 mM ATP, and 1 mM NADPH. The assays were initiated by adding purified carboxylate reductase and phosphopantetheine transferase or the empty vector control to the assay buffer containing the N7-acetyl-7-aminoheptanoate then incubated at room temperature for 20 min. The consumption of NADPH was monitored by absorbance at 340 nm.

Row | Molecule | acceptance of 7-aminoheptanoate as substrate (conversion of pyruvate to L-alanine) [1] | acceptance of pimelate semialdehyde as substrate (conversion of L-alanine to pyruvate) [2] | reversibility of ω-transaminase activity: pimelate semialdehyde accepted, 7-aminoheptanoate synthesized [2] | acceptance of 7-aminoheptanol as substrate (conversion of pyruvate to L-alanine) [3] | acceptance of 7-oxoheptanol as substrate forming 7-aminoheptanol [3] | acceptance of N7-acetyl-7-aminoheptanoate as substrate (NADPH consumption) [4]
1 | SEQ ID NO: 10: Rhodobacter sphaeroides ω-transaminase, N-terminal HIS tagged | accepted 7-aminoheptanoate as substrate | accepted pimelate semialdehyde as substrate | accepted pimelate semialdehyde as substrate and synthesized 7-aminoheptanoate as a reaction product | accepted 7-aminoheptanol as substrate | accept 7-oxoheptanol as substrate and form 7-aminoheptanol | 
2 | SEQ ID NO: 9: Pseudomonas syringae ω-transaminase, N-terminal HIS tagged (protein, listed as Pseudomonas syringae, N-terminal His tag, Pseudomonas syringae ω-transaminase, N-terminal HIS tagged) MSANNPQTLEWQALSSEHHLAPFSDYKQLKEKGPRIITRAEGVYLWDSEGNKILDGMSGLWCVAIGYGREELADAASKQMRELPYYNLFFQTAHPPVLELAKAISDIAPEGMNHVFFTGSGSEGNDTMLRMVRHYWALKGQPNKKTIISRVNGYHGSTVAGASLGGMTYMHEQGDLPIPGVVHIPQPYWFGEGGDMTPDEFGIWAAEQLEKKILELGVENVGAFIAEPIQGAGGVIVPPDSYWPKIKEILSRYDILFAADEVICGFGRTSEWFGSDFYGLRPDMMTIAKGLTSGYVPMGGLIVRDEIVAVLNEGGDFNHGFTYSGHPVAAAVALENIRILREEKIVERVRSETAPYLQKRLRELSDHPLVGEVRGVGLLGAIELVKDKTTRERYTDKGAGMICRTFCFDNGLIMRAVGDTMIIAPPLVISFAQIDELVEKARTCLDLTLAVLQG | accepted 7-aminoheptanoate as substrate | accepted pimelate semialdehyde as substrate | accepted pimelate semialdehyde as substrate and synthesized 7-aminoheptanoate as a reaction product | accepted 7-aminoheptanol as substrate | accept 7-oxoheptanol as substrate and form 7-aminoheptanol | 
3 | SEQ ID NO: 12: Vibrio fluvialis ω-transaminase, N-terminal HIS tagged (protein, listed as Vibrio fluvialis, N-terminal His tag, Vibrio fluvialis ω-transaminase, N-terminal HIS tagged) MNKPQSWEARAETYSLYGFTDMPSLHQRGTVVVTHGEGPYIVDVNGRRYLDANSGLWNMVAGFDHKGLIDAAKAQYERFPGYHAFFGRMSDQTVMLSEKLVEVSPFDSGRVFYTNSGSEANDTMVKMLWFLHAAEGKPQKRKILTRWNAYHGVTAVSASMTGKPYNSVFGLPLPGFVHLTCPHYWRYGEEGETEEQFVARLARELEETIQREGADTIAGFFAEPVMGAGGVIPPAKGYFQAILPILRKYDIPVISDEVICGFGRTGNTWGCVTYDFTPDAIISSKNLTAGFFPMGAVILGPELSKRLETAIEAIEEFPHGFTASGHPVGCAIALKAIDVVMNEGLAENVRRLAPRFEERLKHIAERPNIGEYRGIGFMWALEAVKDKASKTPFDGNLSVSERIANTCTDLGLICRPLGQSVVLCPPFILTEAQMDEMFDKLEKALDKVFAEVA | accepted 7-aminoheptanoate as substrate | accepted pimelate semialdehyde as substrate | accepted pimelate semialdehyde as substrate and synthesized 7-aminoheptanoate as a reaction product |  |  | 
4 | SEQ ID NO: 3: Mycobacterium smegmatis carboxylate reductase, N-terminal HIS tagged (protein, listed as Mycobacterium smegmatis, N-terminal His tag, Mycobacterium smegmatis carboxylate reductase, N-terminal HIS tagged) MTSDVHDATDGVTETALDDEQSTRRIAELYATDPEFAAAAPLPAVVDAAHKPGLRLAEILQTLFTGYGDRPALGYRARELATDEGGRTVTRLLPRFDTLTYAQVWSRVQAVAAALRHNFAQPIYPGDAVATIGFASPDYLTLDLVCAYLGLVSVPLQHNAPVSRLAPILAEVEPRILTVSAEYLDLAVESVRDVNSVSQLVVFDHHPEVDDHRDALARAREQLAGKGIAVTTLDAIADEGAGLPAEPIYTADHDQRLAMILYTSGSTGAPKGAMYTEAMVARLWTMSFITGDPTPVINVNFMPLNHLGGRIPISTAVQNGGTSYFVPESDMSTLFEDLALVRPTELGLVPRVADMLYQHHLATVDRLVTQGADELTAEKQAGAELREQVLGGRVITGFVSTAPLAAEMRAFLDITLGAHIVDGYGLTETGAVTRDGVIVRPPVIDYKLIDVPELGYFSTDKPYPRGELLVRSQTLTPGYYKRPEVTASVFDRDGYYHTGDVMAETAPDHLVYVDRRNNVLKLAQGEFVAVANLEAVFSGAALVRQIFVYGNSERSFLLAVVVPTPEALEQYDPAALKAALADSLQRTARDAELQSYEVPADFIVETEPFSAANGLLSGVGKLLRPNLKDRYGQRLEQMYADIAATQANQLRELRRAAATQPVIDTLTQAAATILGTGSEVASDAHFTDLGGDSLSALTLSNLLSDFFGFEVPVGTIVNPATNLAQLAQHIEAQRTAGDRRPSFTTVHGADATEIRASELTLDKFIDAETLRAAPGLPKVTTEPRTVLLSGANGWLGRFLTLQWLERLAPVGGTLITIVRGRDDAAARARLTQAYDTDPELSRRFAELADRHLRVVAGDIGDPNLGLTPEIWHRLAAEVDLVVHPAALVNHVLPYRQLFGPNVVGTAEVIKLALTERIKPVTYLSTVSVAMGIPDFEEDGDIRTVSPVRPLDGGYANGYGNSKWAGEVLLREAHDLCGLPVATFRSDMILAHPRYRGQVNVPDMFTRLLLSLLITGVAPRSFYIGDGERPRAHYPGLTVDFVAEAVTTLGAQQREGYVSYDVMNPHDDGISLDVFVDWLIRAGHPIDRVDDYDDWVRRFETALTALPEKRRAQTVLPLLHAFRAPQAPLRGAPEPTEVFHAAVRTAKVGPGDIPHLDEALIDKYIRDLREFGLI |  |  |  |  |  | accepted N7-acetyl-7-aminoheptanoate as substrate
